The chains are these.
B1: CaKip3 NE-PT (neck extension and proximal tail; residues 444-707), His6-MBP fusion (domain or fragment, Candida albicans, UniProt A0A1D8PKA4 444-707, looked up)
chain: VGSYLKMITEQKQEIEELRARESKMVESTINKRKDLESKVFKILFESLESTRKAIAKQNQEKWKKYFILAKRKLLLSQKIETELVLEQRDDIDINSLSIASGNESESVFKIYDLCEQLISKIEYQLPQLESQYSQPTDLDYILEDSAMQTLKRLQDEEGWTEHHSAIYRQSIQSMKREVHTDLLLYSSILYDNLIHDLSIFFYIPREIGNFINNISNPTSLNEANQELLYNMTLGLENLLNGEFDSAMEHYAMDYMKNKVESEN
B2: CaKip3 MD-PT (motor domain, neck linker, neck extension and proximal tail domain; residues 1-707) (domain or fragment, Candida albicans, UniProt A0A1D8PKA4 1-707, looked up)
chain: MSYPNSLGSPATVTSTSVPTAKQSSISVAVRVRPFTEAESNRLVKIDNDDVFLGDGCLTSDNNNNNNNSNSNGNGNGNGSSAANSSGASTSRRAIFNTLGGLRKIINVVDDRMLIFDPPETNPLTKMQRNAFPNSFKGSRIREHRFVFDRLFDEDCTQDQVYRNTTQPLLDSVLDGYNATVFAYGATGCGKTHTISGTPEDPGVIFLTMKELYNRIEELKDTKIIDISLSYLEIYNETIRDLLNPMTQCKNLVIREDANNKISVSNLSRHRPNSVEEVMQLILEGNKNRTCSPTEANATSSRSHAVLQINVIQKDRTGDITEEHTFATLSIIDLAGSERAAATKNRGARLNEGANINKSLLALGNCINALCDPRRRNHVPYRDSKLTRLLKFSLGGNCKTVMIVCVSPSSQHYDETLNTLKYADRAKEIKTKLIRNQHNLDRHVGSYLKMITEQKQEIEELRARESKMVESTINKRKDLESKVFKILFESLESTRKAIAKQNQEKWKKYFILAKRKLLLSQKIETELVLEQRDDIDINSLSIASGNESESVFKIYDLCEQLISKIEYQLPQLESQYSQPTDLDYILEDSAMQTLKRLQDEEGWTEHHSAIYRQSIQSMKREVHTDLLLYSSILYDNLIHDLSIFFYIPREIGNFINNISNPTSLNEANQELLYNMTLGLENLLNGEFDSAMEHYAMDYMKNKVESEN
B3: CaKip3 PT (proximal tail only; residues 475-707), His6-MBP fusion (domain or fragment, Candida albicans, UniProt A0A1D8PKA4 475-707, looked up)
chain: KRKDLESKVFKILFESLESTRKAIAKQNQEKWKKYFILAKRKLLLSQKIETELVLEQRDDIDINSLSIASGNESESVFKIYDLCEQLISKIEYQLPQLESQYSQPTDLDYILEDSAMQTLKRLQDEEGWTEHHSAIYRQSIQSMKREVHTDLLLYSSILYDNLIHDLSIFFYIPREIGNFINNISNPTSLNEANQELLYNMTLGLENLLNGEFDSAMEHYAMDYMKNKVESEN

Consider three proteins from publication doi:10.1101/2024.09.05.611543 (bioRxiv, 2024).

The series deals with the molecule itself. In words: SEC-MALS. A general note: SEC sorts molecules by how far they enter the pores of the column.
What is called stoichiometry N is the number of molecules, sites or subunits per partner or assembly. For B1, the “stoichiometry N” value amounted to 2. Under B2 stands 2.

Turning to B3, the “stoichiometry N” value amounted to 2.
